The target in the test is T1, recombinant PSSP17 (117 amino acid fragment of P. falciparum PSSP17 with a HIS tag, expressed in E. coli) (Plasmodium falciparum).
T1 construct: Antigen used to raise 10E2B7 and 27C9B5; spiked into naive human saliva in the lateral flow assays; also called recombinant PfPSSP17; recombinant subunit PSSP17; not shown: HIS tag from the expression vector
T1 chain: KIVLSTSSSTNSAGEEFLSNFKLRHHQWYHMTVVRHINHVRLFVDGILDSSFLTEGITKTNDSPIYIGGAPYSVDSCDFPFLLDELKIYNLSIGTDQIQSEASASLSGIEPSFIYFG
Briefly: sandwich lateral flow immunoassay (gRAD strip, streptavidin test line); lower limit of detection of recombinant PSSP17 printed as 1-5 ng/mL.

B1: anti-PF3D7_1218800 mAb 27C9.B5 IgG (antibody, V domains shown)
VH: QVQVRQSGAEVVRPGTSVRVSCKTSGYAFTDYLIEWVKQRPGQGLEWIGVINPVRGTTNYSEKFKGKATLTADKSSGTAYMQFYSLTSDDSAVYFCARSRGSDGFPYWGQGTLVTVSA
VL: DVLMTQTPLSLPVSLGDQASISCRSSQSIVHSNGYTYLEWYLQKPGQSPKLLIYKLSNRFSGVPDRFSGSGSGTDFTLKISRVEAEDLGVYYCFQGSHIPYTFGGGTKLEIK
notes: Used covalently coupled to Europium(III)-chelate carboxylate polystyrene microparticles as the detection antibody of the SMAART-PSSP17 lateral flow assay; also called EuChelate nanoparticle-conjugated anti-PSSP17 27C9.B5 mAb; MP-27C9.B5 conjugate
As to B1, the binding result is given as “binds”.

B2: anti-PSSP17 mAb 10E2.B7 IgG (antibody, V domains shown)
VH: EVQLVESGGDLVKPGGSLKLSCAASGFTFSSYGMSWVRQTPDKRLEWVATISSGGSYIYYPDSMKGRFTMSRDNAKNTLYLQMSSLKSEDTAMYYCAREERDWLAYWGQGTLVTVSA
VL: DVVMTQSPLSLPVSLGDQASISCRSSQSLIHNNGDIYVHWYLQKPGQSPKLLIYKVSNRFSGVPDRFSGSGSGTDFTFKISRVEAEDLGVYFCSQSSHVPPTFGGGTKLEIK
notes: Used biotinylated (20:1 biotin:antibody) as the capture antibody of the SMAART-PSSP17 lateral flow assay; also called biotinylated anti-PSSP17 10E2.B7; Bio-Ab
With B2, the binding result is reported as “binds”.
